Paper PMC2793330 (Journal of structural biology, 2009)

T1: Spc98p, without fluorescent protein tag (S. cerevisiae, UniProt P53540 1-846)
T1 sequence (looked up): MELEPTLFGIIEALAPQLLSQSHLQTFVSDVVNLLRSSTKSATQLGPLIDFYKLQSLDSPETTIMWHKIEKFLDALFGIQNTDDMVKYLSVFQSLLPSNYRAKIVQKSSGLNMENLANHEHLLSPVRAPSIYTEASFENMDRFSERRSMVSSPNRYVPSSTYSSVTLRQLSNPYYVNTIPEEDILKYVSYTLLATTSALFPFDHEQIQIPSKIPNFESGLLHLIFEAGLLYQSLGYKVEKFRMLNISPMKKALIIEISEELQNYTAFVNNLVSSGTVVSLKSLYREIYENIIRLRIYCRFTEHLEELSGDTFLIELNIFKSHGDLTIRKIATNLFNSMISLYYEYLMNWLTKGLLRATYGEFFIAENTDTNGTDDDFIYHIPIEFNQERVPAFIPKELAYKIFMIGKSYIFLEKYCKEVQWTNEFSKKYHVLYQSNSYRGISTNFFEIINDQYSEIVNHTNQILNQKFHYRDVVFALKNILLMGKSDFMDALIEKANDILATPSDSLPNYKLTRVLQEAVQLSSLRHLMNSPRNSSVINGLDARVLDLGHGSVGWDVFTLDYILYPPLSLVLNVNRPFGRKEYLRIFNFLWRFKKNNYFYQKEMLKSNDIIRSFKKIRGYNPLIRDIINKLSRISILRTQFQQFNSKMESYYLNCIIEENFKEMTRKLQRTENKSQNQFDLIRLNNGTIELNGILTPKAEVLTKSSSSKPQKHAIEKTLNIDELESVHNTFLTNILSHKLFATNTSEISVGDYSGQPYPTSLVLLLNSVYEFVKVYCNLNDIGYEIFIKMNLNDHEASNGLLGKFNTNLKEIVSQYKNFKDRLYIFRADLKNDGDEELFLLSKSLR

T2: Spc98p with CFP on its C-terminus (of γ-TuSC:Spc98pCFP) (S. cerevisiae, UniProt P53540 1-846)
T2 sequence (looked up): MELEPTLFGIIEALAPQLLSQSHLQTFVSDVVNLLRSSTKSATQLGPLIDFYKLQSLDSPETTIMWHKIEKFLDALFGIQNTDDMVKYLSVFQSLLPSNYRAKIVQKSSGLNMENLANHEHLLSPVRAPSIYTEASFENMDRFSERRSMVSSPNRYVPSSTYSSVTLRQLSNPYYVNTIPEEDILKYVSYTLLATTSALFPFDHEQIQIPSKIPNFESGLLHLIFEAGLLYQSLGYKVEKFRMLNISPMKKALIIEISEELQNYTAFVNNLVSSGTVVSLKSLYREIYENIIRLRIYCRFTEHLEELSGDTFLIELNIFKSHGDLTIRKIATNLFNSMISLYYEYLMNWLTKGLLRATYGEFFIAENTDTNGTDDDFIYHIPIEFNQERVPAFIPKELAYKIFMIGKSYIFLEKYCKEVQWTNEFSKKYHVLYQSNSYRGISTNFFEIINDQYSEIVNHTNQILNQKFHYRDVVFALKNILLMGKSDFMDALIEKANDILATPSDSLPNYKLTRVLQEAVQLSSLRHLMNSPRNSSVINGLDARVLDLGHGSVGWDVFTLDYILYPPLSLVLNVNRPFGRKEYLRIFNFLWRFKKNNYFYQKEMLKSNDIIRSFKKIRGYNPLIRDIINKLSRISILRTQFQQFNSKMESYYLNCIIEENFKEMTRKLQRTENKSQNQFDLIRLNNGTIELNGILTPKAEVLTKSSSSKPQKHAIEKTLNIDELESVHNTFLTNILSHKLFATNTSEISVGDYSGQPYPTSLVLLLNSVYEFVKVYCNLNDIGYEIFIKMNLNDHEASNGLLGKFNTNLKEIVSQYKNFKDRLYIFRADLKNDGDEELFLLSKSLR

T3: Spc98p with CFP on its N-terminus (of γ-TuSC:CFPSpc98p) (S. cerevisiae, UniProt P53540 1-846)
T3 sequence (looked up): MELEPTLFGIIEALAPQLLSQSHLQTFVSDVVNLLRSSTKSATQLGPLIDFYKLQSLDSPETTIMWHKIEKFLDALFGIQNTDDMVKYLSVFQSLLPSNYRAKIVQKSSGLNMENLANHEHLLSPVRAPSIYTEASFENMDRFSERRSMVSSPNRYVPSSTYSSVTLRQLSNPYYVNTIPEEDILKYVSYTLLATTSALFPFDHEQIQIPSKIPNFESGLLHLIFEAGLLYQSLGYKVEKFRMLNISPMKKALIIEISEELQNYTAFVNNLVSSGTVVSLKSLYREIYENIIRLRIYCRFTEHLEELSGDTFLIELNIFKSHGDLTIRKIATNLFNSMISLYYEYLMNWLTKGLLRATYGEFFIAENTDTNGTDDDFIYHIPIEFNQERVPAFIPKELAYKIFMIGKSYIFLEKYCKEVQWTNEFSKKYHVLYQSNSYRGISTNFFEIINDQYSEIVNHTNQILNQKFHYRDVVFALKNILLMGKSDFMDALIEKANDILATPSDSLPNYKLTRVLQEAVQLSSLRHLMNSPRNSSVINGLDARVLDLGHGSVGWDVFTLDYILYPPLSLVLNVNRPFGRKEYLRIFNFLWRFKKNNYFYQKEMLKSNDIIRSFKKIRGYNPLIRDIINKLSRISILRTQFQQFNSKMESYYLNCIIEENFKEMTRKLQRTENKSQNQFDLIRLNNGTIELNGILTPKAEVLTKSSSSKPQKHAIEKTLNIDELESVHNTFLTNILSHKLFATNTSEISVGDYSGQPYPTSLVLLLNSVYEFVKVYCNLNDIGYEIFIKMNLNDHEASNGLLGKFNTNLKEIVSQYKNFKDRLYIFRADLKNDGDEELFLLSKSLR

B1: Spc97p with YFP on its N-terminus (of γ-TuSC:YFPSpc97p) (natural protein, S. cerevisiae, UniProt P38863 1-823, looked up)
chain: MEIKEVDDRAELLRYTNNIPLLGKLVNHQPLWSTNPKLKSFSLEKISAPDQRRVQEALVVKDLLNVLIGLEGTYIRYFNDYEPSDPETPIEFKIAKKMDPSFKTFSRRIVRYGKQYMILTRAYEKWSDTSFGMVLQRFAYEIRRFLEDVYLKTLVERLERDFNKVPNFSIRELEQIINETEVNKQMELLYNIYEEIFREIEERRTNQSSQEDFNNFMDSMKNESSLHLRLMVAFDTTVYPVPKGGAILKIFQQKILENLGDRSSVMFLKKLLNNISQDYCTMLYEWLTQGILNDPYQEFMTYDDLEGKTDNIFDTRDRAWDTQYFIRKDVLLRDCDSEEDKNLLFKMLRTGILLKVVRASLQIPTIPSNSSDITIQEINDFADLMEGSNLELYVDKCYSRANEIFLKLFFQGYDLINVLKHLQQIFLGYQSGHNVLKFLTKNMGELTKHYRNDNNANYDKLLQNFELERQSENPNNLMRQLLMIQFDTETLPQVLSHYLQIYPEVPENNSANDDSDPLMHANNFKNMNAILFDELSKERTGAYHGSNLELYTPKSAIYHLKFDINIPYPLNIIISRTCMIKYQIILRYQLVLQYHSRLLDETWMDLNKTPSWKYRGYSHTVKRRIVRATRVLHAKMNHFIKTIMEYFNQNVIDKEVYSLEKCYRNPTLAVAIQNELEGGLTNIMTNRCLSDLIPLQLQIFDIVYKFCKFIKSMRAKLCQLDPVLYEKHKSGMMKTLNEGYRTNNGGQEDVGYQEDAALELIQKLIEYISNASSIFRKCLINFTQELSTEKFDFYDSSSVDAAGIERVLYSIVPPRSASASSQR
B2: Spc97p, without fluorescent protein tag (natural protein, S. cerevisiae, UniProt P38863 1-823, looked up)
chain: MEIKEVDDRAELLRYTNNIPLLGKLVNHQPLWSTNPKLKSFSLEKISAPDQRRVQEALVVKDLLNVLIGLEGTYIRYFNDYEPSDPETPIEFKIAKKMDPSFKTFSRRIVRYGKQYMILTRAYEKWSDTSFGMVLQRFAYEIRRFLEDVYLKTLVERLERDFNKVPNFSIRELEQIINETEVNKQMELLYNIYEEIFREIEERRTNQSSQEDFNNFMDSMKNESSLHLRLMVAFDTTVYPVPKGGAILKIFQQKILENLGDRSSVMFLKKLLNNISQDYCTMLYEWLTQGILNDPYQEFMTYDDLEGKTDNIFDTRDRAWDTQYFIRKDVLLRDCDSEEDKNLLFKMLRTGILLKVVRASLQIPTIPSNSSDITIQEINDFADLMEGSNLELYVDKCYSRANEIFLKLFFQGYDLINVLKHLQQIFLGYQSGHNVLKFLTKNMGELTKHYRNDNNANYDKLLQNFELERQSENPNNLMRQLLMIQFDTETLPQVLSHYLQIYPEVPENNSANDDSDPLMHANNFKNMNAILFDELSKERTGAYHGSNLELYTPKSAIYHLKFDINIPYPLNIIISRTCMIKYQIILRYQLVLQYHSRLLDETWMDLNKTPSWKYRGYSHTVKRRIVRATRVLHAKMNHFIKTIMEYFNQNVIDKEVYSLEKCYRNPTLAVAIQNELEGGLTNIMTNRCLSDLIPLQLQIFDIVYKFCKFIKSMRAKLCQLDPVLYEKHKSGMMKTLNEGYRTNNGGQEDVGYQEDAALELIQKLIEYISNASSIFRKCLINFTQELSTEKFDFYDSSSVDAAGIERVLYSIVPPRSASASSQR
B3: Spc97p with YFP on its C-terminus (of γ-TuSC:Spc97pYFP) (natural protein, S. cerevisiae, UniProt P38863 1-823, looked up)
chain: MEIKEVDDRAELLRYTNNIPLLGKLVNHQPLWSTNPKLKSFSLEKISAPDQRRVQEALVVKDLLNVLIGLEGTYIRYFNDYEPSDPETPIEFKIAKKMDPSFKTFSRRIVRYGKQYMILTRAYEKWSDTSFGMVLQRFAYEIRRFLEDVYLKTLVERLERDFNKVPNFSIRELEQIINETEVNKQMELLYNIYEEIFREIEERRTNQSSQEDFNNFMDSMKNESSLHLRLMVAFDTTVYPVPKGGAILKIFQQKILENLGDRSSVMFLKKLLNNISQDYCTMLYEWLTQGILNDPYQEFMTYDDLEGKTDNIFDTRDRAWDTQYFIRKDVLLRDCDSEEDKNLLFKMLRTGILLKVVRASLQIPTIPSNSSDITIQEINDFADLMEGSNLELYVDKCYSRANEIFLKLFFQGYDLINVLKHLQQIFLGYQSGHNVLKFLTKNMGELTKHYRNDNNANYDKLLQNFELERQSENPNNLMRQLLMIQFDTETLPQVLSHYLQIYPEVPENNSANDDSDPLMHANNFKNMNAILFDELSKERTGAYHGSNLELYTPKSAIYHLKFDINIPYPLNIIISRTCMIKYQIILRYQLVLQYHSRLLDETWMDLNKTPSWKYRGYSHTVKRRIVRATRVLHAKMNHFIKTIMEYFNQNVIDKEVYSLEKCYRNPTLAVAIQNELEGGLTNIMTNRCLSDLIPLQLQIFDIVYKFCKFIKSMRAKLCQLDPVLYEKHKSGMMKTLNEGYRTNNGGQEDVGYQEDAALELIQKLIEYISNASSIFRKCLINFTQELSTEKFDFYDSSSVDAAGIERVLYSIVPPRSASASSQR

Key:
Assay in all cases: co-purification, SDS-PAGE with band densitometry
[1] = biological target: T1, Spc98p, without fluorescent protein tag
[2] = biological target: T2, Spc98p with CFP on its C-terminus (of …)
[3] = biological target: T3, Spc98p with CFP on its N-terminus (of …)
[4] = biological target: B1
[5] = biological target: B3
[6] = biological target: B2

| stoichiometry N [1] | stoichiometry N [2] | stoichiometry N [3] | stoichiometry N [4] | stoichiometry N [5] | stoichiometry N [6] | Binder |
| --- | --- | --- | --- | --- | --- | --- |
| 1 |  |  |  |  |  | B1 |
| 1 | 1 | 1 |  |  |  | B2 |
| 1 |  |  |  |  |  | B3 |
| 2 | 2 | 2 | 2 | 2 | 2 | γ-tubulin (Tub4p), His-tagged, as in the fluorescent-protein-tagged γ-TuSC constructs (natural protein, S. cerevisiae, UniProt P53378 1-473, looked up) MGGEIITLQAGQCGNHVGKFLWSQLAKEHAIGTDGLSQLPDSSTERDDDTKPFFRENSRNKFTPRAIMMDSEPSVIADVENTFRGFFDPRNTWVASDGASAGNSWANGYDIGTRNQDDILNKIDKEIDSTDNFEGFQLLHSVAGGTGSGLGSNLLEALCDRYPKKILTTYSVFPARSSEVVVQSYNTILALRRLIEDSDATVVFDNASLLNISGKVFRNPNIDLQHTNQLISTIISSVTNSIRFPSYMYSSMSSIYSTLIPSPELHFLSPSFTPFTSDYIHDDIAHKGHSSYDVMLDLLDPSNSLVSTAMNNPTYFNVYNTIIGNVEPRQISRAMTKLQQRIKFPSWSSSAMHVNIGRRSPYLPLQPNENEVSGMMLSNMSTVVNVFENACNTFDKVFAKGAFLNNYNVGDLFQSMQNVQDEFAESREVVQSLMEDYVAAEQDSYLDDVLVDDENMVGELEEDLDADGDHKLV |
| 2 |  |  |  |  | 2 | γ-tubulin (Tub4p), His-tagged with the longer tag linker, as in the γ-TuSC without fluorescent protein tag (natural protein, S. cerevisiae, UniProt P53378 1-473, looked up) MGGEIITLQAGQCGNHVGKFLWSQLAKEHAIGTDGLSQLPDSSTERDDDTKPFFRENSRNKFTPRAIMMDSEPSVIADVENTFRGFFDPRNTWVASDGASAGNSWANGYDIGTRNQDDILNKIDKEIDSTDNFEGFQLLHSVAGGTGSGLGSNLLEALCDRYPKKILTTYSVFPARSSEVVVQSYNTILALRRLIEDSDATVVFDNASLLNISGKVFRNPNIDLQHTNQLISTIISSVTNSIRFPSYMYSSMSSIYSTLIPSPELHFLSPSFTPFTSDYIHDDIAHKGHSSYDVMLDLLDPSNSLVSTAMNNPTYFNVYNTIIGNVEPRQISRAMTKLQQRIKFPSWSSSAMHVNIGRRSPYLPLQPNENEVSGMMLSNMSTVVNVFENACNTFDKVFAKGAFLNNYNVGDLFQSMQNVQDEFAESREVVQSLMEDYVAAEQDSYLDDVLVDDENMVGELEEDLDADGDHKLV |
